Data from PMC6985046.

How the values were obtained:
[1] = biological target: Remicade Fab fragment (sourced from the European Union market) (mouse/human chimeric); assay: AUC
[2] = biological target: PF-06438179/GP1111 Fab fragment (mouse/human chimeric); assay: AUC

| Substance | Kd [1] [µM] | stoichiometry N [2] |
| --- | --- | --- |
| Remicade Fab fragment (sourced from the European Union market) | 23 | – |
| PF-06438179/GP1111 Fab fragment | – | 2 |
